Source: article PMC10185811

Key:
His6-RPN1 WT (human) = His6-RPN1 WT (human) (UniProt Q13200); assay: BLI; Octet; His6-RPN1 loaded on the nickel sensor; NUB1L, GST-FAT10, NUB1L with GST-FAT10 or NUB1L with GST in solution; Octet buffer (PBS, 0.1% Triton X-100, 1x ROTIBlock); 1:1 binding model
GST-NUB1L, Q9Y5A7-1 = assay: Octet (BLI); settings: GST-NUB1L on the sensor; His6-RPN1 variant in solution; parent: est. 0.58; read off a plot
GST-RAD23 = GST-RAD23 (UniProt P54727); assay: Octet (BLI); settings: GST-RAD23 on the sensor; GST control curve in the same panel reaches est. 0.21 nm (above the T1 curve); read off a plot
Chain of GST-RAD23 (P54727 whole entry): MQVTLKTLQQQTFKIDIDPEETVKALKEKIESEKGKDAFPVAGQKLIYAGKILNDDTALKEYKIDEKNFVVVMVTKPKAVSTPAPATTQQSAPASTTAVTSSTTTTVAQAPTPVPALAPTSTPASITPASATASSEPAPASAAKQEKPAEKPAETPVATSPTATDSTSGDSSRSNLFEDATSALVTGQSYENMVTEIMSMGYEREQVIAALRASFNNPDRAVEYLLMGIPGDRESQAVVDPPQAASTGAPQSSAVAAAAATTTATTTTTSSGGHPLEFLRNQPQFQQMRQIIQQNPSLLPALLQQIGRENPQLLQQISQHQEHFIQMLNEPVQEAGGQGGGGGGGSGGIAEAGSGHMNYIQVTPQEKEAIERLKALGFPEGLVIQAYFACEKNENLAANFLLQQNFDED

Chain of His6-RPN1 WT (Q13200 whole entry, change not shown): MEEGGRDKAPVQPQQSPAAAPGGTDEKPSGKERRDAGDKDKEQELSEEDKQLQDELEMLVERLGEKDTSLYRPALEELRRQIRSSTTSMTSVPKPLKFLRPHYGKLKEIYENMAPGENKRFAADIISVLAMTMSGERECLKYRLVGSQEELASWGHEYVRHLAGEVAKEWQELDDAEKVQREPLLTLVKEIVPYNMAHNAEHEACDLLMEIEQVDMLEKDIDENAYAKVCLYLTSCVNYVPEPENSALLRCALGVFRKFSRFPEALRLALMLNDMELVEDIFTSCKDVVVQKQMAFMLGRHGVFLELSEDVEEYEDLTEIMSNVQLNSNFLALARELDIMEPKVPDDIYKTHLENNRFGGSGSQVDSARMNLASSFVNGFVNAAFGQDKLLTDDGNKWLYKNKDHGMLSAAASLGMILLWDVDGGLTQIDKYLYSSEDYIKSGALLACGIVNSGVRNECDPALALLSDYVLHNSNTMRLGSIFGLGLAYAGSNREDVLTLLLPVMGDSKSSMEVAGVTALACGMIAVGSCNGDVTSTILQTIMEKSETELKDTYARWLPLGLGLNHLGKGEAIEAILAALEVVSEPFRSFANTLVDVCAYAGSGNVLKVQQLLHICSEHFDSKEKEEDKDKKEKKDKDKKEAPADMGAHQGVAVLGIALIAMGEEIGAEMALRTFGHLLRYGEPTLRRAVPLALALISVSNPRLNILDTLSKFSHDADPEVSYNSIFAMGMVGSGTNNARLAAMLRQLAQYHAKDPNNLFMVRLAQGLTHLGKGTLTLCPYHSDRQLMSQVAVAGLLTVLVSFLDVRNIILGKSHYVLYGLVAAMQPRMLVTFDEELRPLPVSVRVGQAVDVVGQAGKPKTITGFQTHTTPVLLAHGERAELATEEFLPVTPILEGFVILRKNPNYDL
Chain of GST-NUB1L, Q9Y5A7-1 (Q9Y5A7 whole entry): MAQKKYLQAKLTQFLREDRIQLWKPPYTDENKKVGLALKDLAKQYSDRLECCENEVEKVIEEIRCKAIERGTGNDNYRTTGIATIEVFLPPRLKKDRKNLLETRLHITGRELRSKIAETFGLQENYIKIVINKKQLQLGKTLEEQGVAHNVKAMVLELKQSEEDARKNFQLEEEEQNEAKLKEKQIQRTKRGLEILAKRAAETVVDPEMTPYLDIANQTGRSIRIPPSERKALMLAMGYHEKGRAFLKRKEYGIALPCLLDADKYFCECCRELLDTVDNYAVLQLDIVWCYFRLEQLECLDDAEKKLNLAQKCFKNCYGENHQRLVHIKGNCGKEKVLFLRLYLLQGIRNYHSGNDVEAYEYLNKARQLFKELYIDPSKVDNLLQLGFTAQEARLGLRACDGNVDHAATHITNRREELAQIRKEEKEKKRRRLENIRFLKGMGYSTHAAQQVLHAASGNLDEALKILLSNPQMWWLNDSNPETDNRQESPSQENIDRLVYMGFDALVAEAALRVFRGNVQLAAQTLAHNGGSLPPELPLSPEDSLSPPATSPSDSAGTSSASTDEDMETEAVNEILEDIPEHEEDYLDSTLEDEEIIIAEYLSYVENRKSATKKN
Chain of NUB1L-bound GST-FAT10 (NUB1L co-incubated with GST-FAT10) (Q9Y5A7 whole entry): as above
Chain of NUB1L-bound GST-FAT10 (NUB1L co-incubated with GST-FAT10) (O15205 whole entry): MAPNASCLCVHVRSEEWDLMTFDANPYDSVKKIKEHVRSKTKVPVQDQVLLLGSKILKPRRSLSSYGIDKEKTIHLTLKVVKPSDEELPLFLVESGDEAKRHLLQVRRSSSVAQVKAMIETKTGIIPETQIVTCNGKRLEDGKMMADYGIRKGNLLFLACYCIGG

fold increase of the affinity for RPN1 against NUB1L alone (His6-RPN1 WT (human)) | response (GST-NUB1L, Q9Y5A7-1) | response (GST-RAD23) | Substance
4 fold | – | – | NUB1L-bound GST-FAT10 (NUB1L co-incubated with GST-FAT10) (from UniProt Q9Y5A7-1 1-615; O15205 1-165) (complex)
– | 0.37 nm | 0.19 nm | His6-RPN1 WT (from UniProt Q13200) T1
